Values of other authors, collected in publication PMC6039870.

Target: RNH1 (Homo sapiens) (UniProt P13489)
Chain of UniProt P13489 (P13489 2-461): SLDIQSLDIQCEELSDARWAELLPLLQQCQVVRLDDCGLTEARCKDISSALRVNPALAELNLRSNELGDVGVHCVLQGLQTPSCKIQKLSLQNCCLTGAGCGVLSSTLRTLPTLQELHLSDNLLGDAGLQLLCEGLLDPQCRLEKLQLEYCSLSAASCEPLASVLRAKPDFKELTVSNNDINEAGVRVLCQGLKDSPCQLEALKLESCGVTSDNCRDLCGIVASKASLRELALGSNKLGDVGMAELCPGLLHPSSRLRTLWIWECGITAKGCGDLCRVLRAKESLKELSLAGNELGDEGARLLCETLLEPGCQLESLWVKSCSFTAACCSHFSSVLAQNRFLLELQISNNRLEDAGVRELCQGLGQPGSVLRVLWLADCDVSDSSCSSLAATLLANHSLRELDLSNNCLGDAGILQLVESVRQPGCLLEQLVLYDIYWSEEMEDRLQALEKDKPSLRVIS

Kd: 0.0003 pM
Substance: RNASE1 (from UniProt P07998)
